Measured values as given in paper PMC10167749, “The catalytic domains of Streptococcus mutans glucosyltransferases: a structural analysis” (Acta Crystallographica. Section F, Structural Biology …, 2023).

Molecular target: T1, catalytic domain of Streptococcus mutans GtfB (GtfB-CD) (Streptococcus mutans (UA159), UniProt P08987 191-1051)
T1 construct: Glucosyltransferase GtfB (GTF-I), Streptococcus mutans UA159, catalytic domain, residues 191-1051 (UniProt P08987); Cloned between NcoI and XhoI of pET-23d; also called GTF-I; source: E. coli BL21(DE3), pET-23d, purified (HisTrap FF, Mono Q, Superdex 200)
T1 sequence: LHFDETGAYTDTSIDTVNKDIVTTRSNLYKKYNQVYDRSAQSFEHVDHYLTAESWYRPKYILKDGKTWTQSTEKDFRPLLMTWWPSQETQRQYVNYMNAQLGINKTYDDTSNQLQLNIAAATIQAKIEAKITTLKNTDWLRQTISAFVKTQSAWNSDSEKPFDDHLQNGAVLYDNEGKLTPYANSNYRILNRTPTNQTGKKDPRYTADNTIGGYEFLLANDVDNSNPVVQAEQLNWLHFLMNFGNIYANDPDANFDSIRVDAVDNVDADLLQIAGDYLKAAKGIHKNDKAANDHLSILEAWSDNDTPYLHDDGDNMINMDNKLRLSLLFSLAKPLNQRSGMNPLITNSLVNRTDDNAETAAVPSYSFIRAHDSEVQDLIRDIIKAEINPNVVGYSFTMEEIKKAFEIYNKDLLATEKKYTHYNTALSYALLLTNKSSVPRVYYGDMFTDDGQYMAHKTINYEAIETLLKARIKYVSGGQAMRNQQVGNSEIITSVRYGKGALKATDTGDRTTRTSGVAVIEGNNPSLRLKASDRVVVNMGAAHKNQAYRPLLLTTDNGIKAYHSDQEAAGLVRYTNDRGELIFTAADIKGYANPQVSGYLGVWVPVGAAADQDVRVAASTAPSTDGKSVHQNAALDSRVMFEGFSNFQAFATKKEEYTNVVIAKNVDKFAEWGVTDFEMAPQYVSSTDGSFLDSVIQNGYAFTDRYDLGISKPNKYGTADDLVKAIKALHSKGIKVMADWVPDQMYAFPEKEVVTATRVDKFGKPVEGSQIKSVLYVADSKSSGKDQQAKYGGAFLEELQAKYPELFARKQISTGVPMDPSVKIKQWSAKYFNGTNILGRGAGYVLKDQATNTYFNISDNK
Test: SPR; Biacore T200; iSRCR1 immobilised on a CM5 chip by amine coupling; analyte GtfB-CD 2-8 uM in 20 mM HEPES pH 7.4, 150 mM NaCl, 1 mM CaCl2 at 20 ul/min; each concentration in triplicate; kinetic fitting
Settings: both partners purified

B1: recombinant scavenger receptor cysteine-rich domain 1 of Gp340 expressed in insect cells (iSRCR1) (domain or fragment)
chain: not shown
notes: Gp340 (salivary agglutinin), scavenger receptor cysteine-rich (SRCR) domain 1; source: recombinant, expressed in insect cells
Kd: 509 nM
